This assay has as its target T1, human LRRC15 expressed on cells (human, UniProt Q8TF66 22-581).
T1 construct: whole, on cells; On HEK293 cells transfected with LRRC15/ZsGreen1 (Retrogenix), on HT29 cells transfected with human LRRC15, and endogenous on Saos-2; also called LRRC15/ZsGreen1 transfected HEK293 cells; HT29-LRRC15
T1 sequence (looked up): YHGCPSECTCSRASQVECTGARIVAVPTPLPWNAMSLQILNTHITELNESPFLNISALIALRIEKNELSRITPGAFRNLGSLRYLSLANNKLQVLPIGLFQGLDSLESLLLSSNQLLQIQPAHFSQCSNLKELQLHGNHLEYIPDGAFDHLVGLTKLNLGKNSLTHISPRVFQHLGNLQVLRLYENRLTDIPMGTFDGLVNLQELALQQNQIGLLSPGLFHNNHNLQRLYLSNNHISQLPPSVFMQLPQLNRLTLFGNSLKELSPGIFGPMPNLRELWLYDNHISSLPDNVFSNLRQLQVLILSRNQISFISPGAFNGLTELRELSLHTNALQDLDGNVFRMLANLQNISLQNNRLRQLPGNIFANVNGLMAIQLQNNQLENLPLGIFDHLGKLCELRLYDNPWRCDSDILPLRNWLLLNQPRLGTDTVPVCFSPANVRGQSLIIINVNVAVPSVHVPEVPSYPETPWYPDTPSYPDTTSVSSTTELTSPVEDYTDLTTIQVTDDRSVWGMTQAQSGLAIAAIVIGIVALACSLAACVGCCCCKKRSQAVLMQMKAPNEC
As to the kind of experiment: flow cytometry, transfected HEK293. Background: In flow cytometry, cells or beads pass a laser one at a time.

This passage reports EC50 results from patent US20240108766A1 (Bayer, published 2024).

B1: TPP-17421 (antibody, human IgG1, kappa, V domains shown)
VH: EVQLVQSGAEVKKPGASVKVSCKASGYKFSSYWIEWVKQAPGQGLEWIGEILPGSDWTNYNEKFKDRATFTSDTSINTAYMELSRLRSDDTAVYYCARDRGNYRAWFQYWGQGTLVTVSS
VL: DIQMTQSPSSLSASVGDRVTITCRASQSISSYLNWYQQKPGGAPKFLIYYASSLQSGVPSRFSGSGSGTDYTLTISSLQPEDFATYYCQQGLELPWTFGGGTKVEIKR
notes: also called 438H-M306-C11-hIgG1Kappa
The molecule B1 returned a concentration giving a half-maximal response (EC50) of 0.42 µg/mL.

What is called EC50 is the concentration giving half of the maximal effect. A low value points to a more potent agent.
